Test results from patent publication US20150246949A1, “Desmoglein 2 (DSG2) Binding Proteins and Uses Therefor” (UNIVERSITY OF WASHINGTON THROUGH ITS CENTER FOR …, priority 2012, published 2015).
Substitutions are numbered along the chain they refer to. Entries after “also recorded” stand apart in the source; their conditions may differ.

B1: JO-1: recombinant protein with the Ad3 fiber knob and a domain for self-dimerization of trimeric knobs (SEQ ID NO:27) (protein)
chain: MKVSALKEKVSALKEKVSALKEKVSALKEKVSALKEGSGGGSGGGSGGGSNSIALKNNTLWTGPKPEANCIIEYGKQNPDSKLTLILVKNGGIVNGYVTLMGASDYVNTLFKNKNVSINVELYFDATGHILPDSSSLKTDLELKYKQTADFSARGFMPSTTAYPFVLPNAGTHNENYIFGQCYYKASDGALFPLEVTVMLNKRLPDSRTSYVMTFLWSLNAGLAPETTQATLITSPFTFSYIREDD
B2: JO-4 (protein)
chain: B1 chain with Y177F

Assays:
[1] = system: ovc316 xenograft tumors; assay: Enhancement of PLD therapy in ovc316 ovarian cancer xenograft model; type: in vivo, CB17 mice; details: weekly
Procedure: (§1) FIG. 10. Combination of affinity-enhanced JO-1 versions with chemotherapy. A) Enhancement of irinotecan (I) therapy. The experimental setting was the same as in FIG. 5B. […] N=5. […] Mammary fat pad tumors were established from primary ovarian cancer ovc316 cells. Treatment was started when tumors reached a volume of 100 mm^3 Mice were injected intravenously with 2 mg/kg JO-1 or with 0.5 mg/kg JO-4, followed by an intravenous injection of PEGylated liposomal doxorubicin (PLD) (1 mg/kg) one hour later. Treatment was repeated weekly. […] A total of 4×10^6 TNBC MDA-MB-231 cells were injected into the mammary fat pad of CB17 SCID-beige mice. JO-4 (2 mg/kg) was intravenously injected 1 hour before the application of cetuximab (C) (10 mg/kg, i.p.) and nab-paclitaxel (nab-P) (5 mg/kg, i.v). Treatment was given weekly. N=10 P<0.01 at day 25 for nab-P+C vs JO-4+nab-P+C.
A549, MDA-MB-231, and ovc316 xenograft tumors were established by injection of the corresponding tumor cells into the mammary fat pad (1:1 with Matrigel) of CB17 mice. TC1-DSG2 tumors were established by subcutaneous injection of TC1-DSG2 cells into DSG2 transgenic mice. […] Tumor volumes were measured three times a week. […]

[2] = system: TC1-hDSG2 tumors; assay: Repeated-cycle PLD therapy study in immunocompetent mice with TC1-hDSG2 tumors; type: in vivo, hDSG2 transgenic mice; details: 2 mg/kg i.v. one hour before PLD/Doxil 1.5 mg/kg i.v.; 3rd and 4th cycles days 28 and 35; N=10
Procedure: FIG. 11. Pharmacokinetics, toxicity, and immunogenicity of JO-4. A) Serum clearance of JO-1 and JO-4. hDSG2 transgenic mice with subcutaneous TC1-hDSG2 tumors (˜600 mm^3) were intravenously injected with JO-1 or JO-4 (2 mg/kg) and serum samples were analyzed for by ELISA. N=3. Note that the y-axis has a log scale. B) Lymphocyte and platelet counts in hDSG2/TC1-hDSG2 transgenic mice after JO-1 or JO-4 injection. N=3. C) Therapy studies in immunocompetent hDSG2 transgenic mice with TC1-hDSG2 tumors. When tumors reached a volume of ˜80 mm^3, JO-1 or JO-4 (2 mg/kg) or PBS was injected intravenously followed one hour later by PLD/Doxil (i.v. 1.5 mg/kg). Treatment was repeated as indicated by arrows. Tumors were then allowed to re-grow for about two weeks. From day 15 on serum anti-JO-1/J)-4 antibodies were detectable by ELISA. Two more treatment cycles were performed at day 28 and day 35. […] The difference between JO-1/PLD vs JO-4/PLD is significant from day 31 on. N=10.
A549, MDA-MB-231, and ovc316 xenograft tumors were established by injection of the corresponding tumor cells into the mammary fat pad (1:1 with Matrigel) of CB17 mice. […] Tumor volumes were measured three times a week. […]
JO-1 and JO-4 are virus-derived proteins and immunogenic. In immunocompetent mice, serum IgG antibodies against these proteins can be detected by ELISA two weeks after injection (5). […]

[3] = system: A549 xenograft tumors; assay: Enhancement of irinotecan therapy in A549 xenograft tumors; type: in vivo, CB17-SCID/beige mice; details: 2 mg/kg i.v. one hour before irinotecan 37.5 mg/kg i.v.; days 15 and 25; N=5
Procedure: FIG. 5. Correlation of reduced DSG2 binding with the ability to open epithelial junctions. A) Transepithelial electrical resistance (TEER) measured on polarized colon cancer T84 cells. Cells were cultured in transwell chambers until the TEER was constant, i.e. tight junctions had formed. A total of 5 μg of dimeric Ad3 fiber knobs in PBS was then added for 1 hour to the apical chamber. TEER was measured at the indicated time points. N=6. For time points 1.5 and 4 hours the difference between JO-1 vs D261N and N186D was significant (p<0.01). The arrows indicate the addition and removal of Ad3 fiber knobs. B) Enhancement of irinotecan therapy. A total of 4×10^6 A549 cells were injected subcutaneously into CB17-SCID/beige mice. Once the tumor reached a volume of ˜100 mm^3 (day 15 after implantation), the mice were injected intravenously with 2 mg/kg JO-1, E299V, N186D, or PBS, followed by an intravenous injection of irinotecan (37.5 mg/kg) one hour later. The treatment was repeated on day 25. N=5. […] The difference between “irinotecan” vs “JO-1+irinotecan” was significant (p<0.01) from day 20 on.
as §1
A549, MDA-MB-231, and ovc316 xenograft tumors were established by injection of the corresponding tumor cells into the mammary fat pad (1:1 with Matrigel) of CB17 mice. TC1-DSG2 tumors were established by subcutaneous injection of TC1-DSG2 cells into DSG2 transgenic mice. JO-0, JO-1, JO-2, or JO-4 were intravenously injected one hour before the application of chemotherapeutic drugs: Irinotecan/Camptosar™ (Pfizer Inc., Groton, Conn.), PEGylated liposomal doxorubicin/Lipodox™ (Sun Pharmaceuticals IN, India), cetuximab/Erbitux™ (ImClone, Somerville, N.J.), nanoparticle albumin conjugated paclitaxel/Abraxane™ (Abraxis Biosciences, Summit N.J.). Tumor volumes were measured three times a week. Each treatment group consisted of a minimum of 5 mice.

Row | Molecule | Enhancement of PLD therapy ([1]; 2 mg/kg i.v. one hour before PLD 1 mg/kg i.v.) | Enhancing effect on PLD therapy over repeated treatment cycles [2] | Enhancement of irinotecan therapy [3] | Enhancement of PLD therapy ([1]; 0.5 mg/kg i.v. one hour before PLD 1 mg/kg i.v.)
1 | B1 | significantly increased the treatment efficiency | enhancing effect on PLD therapy; also recorded: continued to be effective after multiple treatment cycles | enhanced irinotecan therapy; also recorded: significant | –
2 | B2 | – | enhancing effect on PLD therapy; also recorded: significantly stronger; also recorded: continued to be effective after multiple treatment cycles | increased irinotecan therapy significantly more than JO-1; also recorded: significantly more efficient than JO-2; also recorded: significant from day 20 on | even greater stimulating effect on PLD therapy; also recorded: enhances PLD therapy in an ovarian cancer model at lower dose than JO-1
